Target: Individual alanine mutations of these three residues (HTR2B S455, S456 and S457)
Test: FRET or BRET

Sequence of N-terminal Venus-tagged β-arrestin-1 (P49407 whole entry): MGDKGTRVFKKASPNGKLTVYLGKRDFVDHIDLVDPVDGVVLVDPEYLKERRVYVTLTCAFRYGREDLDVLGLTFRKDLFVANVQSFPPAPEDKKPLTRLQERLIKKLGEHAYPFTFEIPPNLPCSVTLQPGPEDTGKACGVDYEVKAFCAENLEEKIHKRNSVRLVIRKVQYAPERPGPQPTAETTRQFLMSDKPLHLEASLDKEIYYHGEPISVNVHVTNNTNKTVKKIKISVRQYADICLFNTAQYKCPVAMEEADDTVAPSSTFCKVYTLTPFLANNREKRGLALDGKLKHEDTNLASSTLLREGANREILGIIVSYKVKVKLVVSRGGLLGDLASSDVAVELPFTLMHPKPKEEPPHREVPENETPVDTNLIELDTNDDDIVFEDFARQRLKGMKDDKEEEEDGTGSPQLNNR

reduction of Emax of β-arrestin-1 recruitment against WT: 30 to 50%
Substance: N-terminal Venus-tagged β-arrestin-1 (from UniProt P49407 1-418) (natural protein)
